US20230372448A1, “THERAPEUTIC USE OF LONG-ACTING CONJUGATE OF TRIPLE AGONIST ACTING ON ALL OF GLUCAGON, GLP-1 AND GIP RECEPTORS AGAINST MULTIPLE SCLEROSIS” (HANMI PHARM. CO. ,LTD., priority 2020, published 2023)
Substitutions are numbered along the chain they refer to. Positions of bridges follow the written chain, without caps; N, C: chain ends. Non-standard residues stand in square brackets, D forms with d. No end group written: not given here. *: point of attachment. Acetyl(2-(4-imidazolyl)) = O=C(Cc1c[nH]cn1)*; Aib = CC(C)(N)C(=O)O

B1: triple agonist of SEQ ID NO: 51 (peptide)
peptide: H[Aib]QGTFTSDYSKYLDEKRQKEFVQWLLNTC
modifications: bridge 16-20; not fully specified
B2: triple agonist of SEQ ID NO: 37 (peptide)
peptide: H[Aib]QGTFTSDYSKYLDECRQKEFVQWLLNGGPSSGAPPPSG
modifications: bridge 16-20
B3: triple agonist of SEQ ID NO: 6 (peptide)
peptide: H[Aib]QGTFTSDVSSYLDGQAAKEFVAWLLKGC
modifications: not fully specified
B4: triple agonist of SEQ ID NO: 36 (peptide)
peptide: H[Aib]QGTFTSDYSKYLCEKRQKEFVQWLLNGGPSSGAPPPSG
modifications: bridge 16-20
B5: triple agonist of SEQ ID NO: 44 (peptide)
peptide: HGQGTFTSDCSKQLDGQAAQEFVAWLLAGGPSSGAPPPS
modifications: ends and bridges not checked
B6: triple agonist of SEQ ID NO: 48 (peptide)
peptide: B5 peptide with Q13Y, A18R, E21D, A24N
modifications: ends and bridges not checked
B7: triple agonist of SEQ ID NO: 47 (peptide)
peptide: B5 peptide with Q13Y, A18R
modifications: ends and bridges not checked
B8: triple agonist of SEQ ID NO: 45 (peptide)
peptide: B5 peptide with Q13Y, L14M, E21D
modifications: ends and bridges not checked
B9: triple agonist of SEQ ID NO: 46 (peptide)
peptide: B5 peptide with Q13Y, G16E, A18H
modifications: ends and bridges not checked
B10: triple agonist of SEQ ID NO: 4 (peptide)
peptide: H[Aib]QGTFTSDVSSYLLGQQQKEFIAWLVKGC
modifications: not fully specified
B11: triple agonist of SEQ ID NO: 35 (peptide)
peptide: H[Aib]QGTFTSDYSIAMDEIHQKDFVNWLLNTKC
modifications: bridge 16-20; not fully specified
B12: triple agonist of SEQ ID NO: 43 (peptide)
peptide: Y[Aib]QGTFTSDYSKYLDEKRAKEFVQWLLDHHCSSGQPPPS
modifications: bridge 16-20; not fully specified
B13: triple agonist of SEQ ID NO: 39 (peptide)
peptide: H[Aib]QGTFTSDYSKYLDGQHAQCFVAWLLAGGGPSSGAPPPS
modifications: also: ring from underlined residues, positions not shown
B14: triple agonist of SEQ ID NO: 56 (peptide)
peptide: H[Aib]QGTFTSDYSKYLDEKRQKEFVNWLLAQC
modifications: bridge 16-20
B15: triple agonist of SEQ ID NO: 54 (peptide)
peptide: H[Aib]EGTFTSDYSIAMDEIHQKDFVDWLLAEC
modifications: bridge 16-20; not fully specified
B16: triple agonist of SEQ ID NO: 42 (peptide)
peptide: Y[Aib]QGTFTSDYSKYLDEKRAKEFVQWLLDHHPSSGQPPPSC
modifications: bridge 16-20; not fully specified
B17: triple agonist of SEQ ID NO: 34 (peptide)
peptide: H[Aib]QGTFTSDYSKYLDEKRQKEFVNWLLAQKC
modifications: bridge 16-20; not fully specified
B18: triple agonist of SEQ ID NO: 38 (peptide)
peptide: {Acetyl(2-(4-imidazolyl))}-[Aib]QGTFTSDKSSYLDERAAQDFVQWLLDGGPSSGAPPPSS
modifications: not fully specified; also: ring from underlined residues, positions not shown
B19: triple agonist of SEQ ID NO: 50 (peptide)
peptide: H[Aib]QGTFTSDYSKYLDEKRAKEFVQWLLDHHPSSGQPPPSC
modifications: bridge 16-20; not fully specified
B20: triple agonist of SEQ ID NO: 52 (peptide)
peptide: H[Aib]QGTFTSDYSKYLDEKRQKEFVQWLLDTC
modifications: bridge 16-20; not fully specified
B21: triple agonist of SEQ ID NO: 1 (peptide)
peptide: H[Aib]QGTFTSDVSSYLDGQAAKEFIAWLVKGC
modifications: not fully specified
B22: triple agonist of SEQ ID NO: 40 (peptide)
peptide: H[Aib]QGTFTSDKSKYLDERACQDFVQWLLDGGPSSGAPPPS
modifications: not fully specified
B23: triple agonist of SEQ ID NO: 41 (peptide)
peptide: H[Aib]QGTFTSDKSKYLDECAAQDFVQWLLDGGPSSGAPPPS
modifications: not fully specified
B24: triple agonist of SEQ ID NO: 5 (peptide)
peptide: H[Aib]QGTFTSDVSSYLLGQQQKEFIAWLVKGGGPSSGAPPPSC
modifications: not fully specified
B25: triple agonist of SEQ ID NO: 49 (peptide)
peptide: {Acetyl(2-(4-imidazolyl))}-[Aib]QGTFTSDYSICMDEIHQKDFVNWLLNTK
modifications: bridge 15-19; not fully specified

Target: human GLP-1 receptor (human, UniProt P43220 24-463)
Assay: cell-based or functional assay

Binder | In vitro activity (%) compared with native peptide: vs GLP-1 [%]
B1 | 14.4
B2 | 236
B3 | 17
B4 | 37.4
B5 | 1.3
B6 | 1.5
B7 | 2.4
B8 | 6.6
B9 | 1.4
B10 | 8.5
B11 | 7.5
B12 | 12.6
B13 | 13.9
B14 | 57.9
B15 | 30.6
B16 | 33.9
B17 | 19.1
B18 | 2.3
B19 | 67.4
B20 | 44.1
B21 | 3.2
B22 | 75.2
B23 | 34.3
B24 | 42.1
B25 | 29.8

Target: human GCG receptor (human, UniProt P47871 26-477)
Assay: cell-based or functional assay

human GCG receptor, sequence (P47871 26-477): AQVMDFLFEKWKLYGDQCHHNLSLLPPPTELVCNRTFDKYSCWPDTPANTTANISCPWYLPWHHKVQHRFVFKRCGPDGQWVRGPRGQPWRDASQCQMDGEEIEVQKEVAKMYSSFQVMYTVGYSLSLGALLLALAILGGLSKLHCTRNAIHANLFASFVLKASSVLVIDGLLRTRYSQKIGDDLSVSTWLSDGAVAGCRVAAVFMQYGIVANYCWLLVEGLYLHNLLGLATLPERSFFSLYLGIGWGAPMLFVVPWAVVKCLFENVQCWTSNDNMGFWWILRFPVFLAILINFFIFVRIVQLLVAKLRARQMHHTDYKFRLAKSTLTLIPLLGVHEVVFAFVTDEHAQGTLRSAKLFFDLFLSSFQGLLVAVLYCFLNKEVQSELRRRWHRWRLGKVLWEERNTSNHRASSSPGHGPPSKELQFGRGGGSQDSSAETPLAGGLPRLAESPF

Binder | In vitro activity (%) compared with native peptide: vs Glucagon [%]
B1 | 2
B2 | 6.21
B3 | < 0.1
B4 | 0.39
B5 | < 0.1
B6 | < 0.1
B7 | < 0.1
B8 | < 0.1
B9 | < 0.1
B10 | < 0.1
B11 | < 0.1
B12 | 88.4
B13 | 0.53
B14 | 4.9
B15 | 1.4
B16 | 206
B17 | 0.92
B19 | 50.5
B20 | 7.5
B21 | < 0.1
B22 | < 0.1
B23 | < 0.1
B24 | < 0.1
B25 | < 0.1

Target: T1, human GIP receptor (human, UniProt P48546 22-466)
T1 sequence (looked up): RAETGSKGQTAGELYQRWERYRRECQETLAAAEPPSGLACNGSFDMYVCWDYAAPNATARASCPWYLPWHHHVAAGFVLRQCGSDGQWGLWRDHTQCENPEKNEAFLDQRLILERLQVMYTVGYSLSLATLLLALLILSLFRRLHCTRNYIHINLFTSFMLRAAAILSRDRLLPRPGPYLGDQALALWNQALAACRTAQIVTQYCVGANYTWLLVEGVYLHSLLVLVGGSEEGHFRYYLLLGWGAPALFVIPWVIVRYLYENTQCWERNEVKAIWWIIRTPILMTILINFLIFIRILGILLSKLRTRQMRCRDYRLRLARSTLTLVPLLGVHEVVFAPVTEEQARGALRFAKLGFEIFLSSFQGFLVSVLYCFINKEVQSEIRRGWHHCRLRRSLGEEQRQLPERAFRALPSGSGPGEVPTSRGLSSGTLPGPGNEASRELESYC
Assay: cell-based or functional assay

Binder | In vitro activity (%) compared with native peptide: vs GIP [%]
B1 | 0.1
B2 | 2.2
B3 | < 0.1
B4 | 0.2
B5 | < 0.1
B6 | < 0.1
B7 | < 0.1
B8 | < 0.1
B9 | < 0.1
B10 | < 0.1
B11 | 1.3
B12 | 3.7
B13 | < 0.1
B14 | 0.8
B15 | 0.1
B16 | 7.8
B17 | 0.6
B19 | 2.7
B20 | 0.3
B21 | < 0.1
B22 | < 0.1
B23 | < 0.1
B24 | < 0.1
B25 | 3.3
